The target of the experiment is SP-VSVG-hGLP-1RΔN23-GFP V36A (human) (UniProt P43220).
Chain of UniProt P43220 (P43220 24-463 V36A): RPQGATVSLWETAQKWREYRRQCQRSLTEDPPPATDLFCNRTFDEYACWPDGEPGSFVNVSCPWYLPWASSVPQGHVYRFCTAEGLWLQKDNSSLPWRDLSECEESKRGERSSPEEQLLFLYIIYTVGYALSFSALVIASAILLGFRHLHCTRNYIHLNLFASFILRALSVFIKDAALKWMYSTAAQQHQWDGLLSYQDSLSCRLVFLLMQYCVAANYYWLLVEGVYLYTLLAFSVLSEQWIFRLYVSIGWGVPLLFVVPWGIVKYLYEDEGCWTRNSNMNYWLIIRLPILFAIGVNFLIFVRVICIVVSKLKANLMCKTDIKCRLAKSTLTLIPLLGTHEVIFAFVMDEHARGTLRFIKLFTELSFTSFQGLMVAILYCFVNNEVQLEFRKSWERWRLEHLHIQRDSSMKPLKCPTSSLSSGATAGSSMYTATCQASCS

GLP-1 7–37 (liraglutide) (peptide) registered an agonist induced internalisation of hGLP-1R V36A (cell-surface ELISA with the anti-GLP-1R antibody, HEK293 cells) of 12.4%.

These data come from PMC4839733.
